The values that follow come from the Immune Epitope Database (IEDB).

What is called Kd is a measure of binding affinity in units of concentration. Higher therefore signals a looser complex.

The target of assay [1] is HLA-A*02:12. Briefly: IEDB peptide-MHC binding, purified MHC/competitive/fluorescence; filed as Kd, often an IC50 or EC50 that approximates it; ≥ and ≤ were set here for values at or beyond the usual limits of such assays. The note with it: source organism: Vibrio antiquarius.
Assay [2] addresses HLA-B*39:01. The assay is described as above. The note with it: source organism: Vibrio antiquarius.
The target in assay [3] is HLA-A*24:03. The assay is described as above. Particulars: source organism: Vibrio antiquarius.
Assay [4] concerns the target HLA-A*69:01. The assay is described as above. The note with it: source organism: Vibrio antiquarius.
The target of assay [5] is HLA-A*02:03. The description is as above. The note with it: source organism: Vibrio antiquarius.
In assay [6] the target is HLA-A*02:01. The description is as above. Particulars: source organism: Vibrio antiquarius.
The target of assay [7] is HLA-A*03:01. Described as above. The note with it: source organism: Vibrio antiquarius.
The target of assay [8] is HLA-A*68:02. The description is as above. Particulars: source organism: Vibrio antiquarius.
Assay [9] addresses HLA-B*46:01. Described as above. The note with it: source organism: Vibrio antiquarius.
The target of assay [10] is HLA-B*27:03. The description is as above. Particulars: source organism: Vibrio antiquarius.
Assay [11] has as its target HLA-B*18:01. The description is as above. The note with it: source organism: Vibrio antiquarius.
Assay [12] addresses HLA-B*57:01. Described as above. Particulars: source organism: Vibrio antiquarius.
In assay [13] the target is HLA-B*51:01. The assay is described as above. The note with it: source organism: Vibrio antiquarius.
In assay [14] the target is HLA-A*25:01. The assay is described as above. Particulars: source organism: Vibrio antiquarius.
Assay [15] deals with HLA-A*02:19. Described as above. The note with it: source organism: Vibrio antiquarius.
For assay [16], the target named is HLA-A*80:01. The assay is described as above. The note with it: source organism: Vibrio antiquarius.
The target in assay [17] is HLA-A*26:01. The assay is described as above. The note with it: source organism: Vibrio antiquarius.
The target of assay [18] is HLA-B*15:01. Described as above. Particulars: source organism: Vibrio antiquarius.
In assay [19] the target is HLA-A*02:11. Described as above. The note with it: source organism: Vibrio antiquarius.
Assay [20] concerns the target HLA-A*23:01. The assay is described as above. Particulars: source organism: Vibrio antiquarius.
The target in assay [21] is HLA-A*29:02. The assay is described as above. The note with it: source organism: Vibrio antiquarius.
Assay [22] deals with HLA-B*15:17. The description is as above. The note with it: source organism: Vibrio antiquarius.
Assay [23] concerns the target HLA-B*83:01. The assay is described as above. The note with it: source organism: Entamoeba histolytica HM-1:IMSS.
Assay [24] concerns the target HLA-A*02:50. The description is as above. The note with it: source organism: Entamoeba histolytica HM-1:IMSS.
Assay [25] deals with HLA-A*03:19. Described as above. The note with it: source organism: Entamoeba histolytica HM-1:IMSS.
The target in assay [26] is HLA-B*15:42. The description is as above. The note with it: source organism: Entamoeba histolytica HM-1:IMSS.
For assay [27], the target named is HLA-B*45:06. The assay is described as above. The note with it: source organism: Entamoeba histolytica HM-1:IMSS.
Assay [28] deals with HLA-C*06:02. The description is as above. The note with it: source organism: Entamoeba histolytica HM-1:IMSS.
Assay [29] concerns the target HLA-A*02:12. The assay can be described thus: IEDB peptide-MHC binding, purified MHC/direct/fluorescence; filed as Kd, often an IC50 or EC50 that approximates it; ≥ and ≤ were set here for values at or beyond the usual limits of such assays. Particulars: source organism: Entamoeba histolytica HM-1:IMSS.
The target in assay [30] is HLA-C*15:02. The description is as above. Particulars: source organism: Entamoeba histolytica HM-1:IMSS.
Assay [31] deals with HLA-A*01:01. The description is as above. Particulars: source organism: Entamoeba histolytica.
For assay [32], the target named is HLA-A*69:01. The assay is described as above. The note with it: source organism: Entamoeba histolytica.
Assay [33] concerns the target HLA-A*02:03. Described as above. Particulars: source organism: Entamoeba histolytica HM-1:IMSS.
The target of assay [34] is HLA-A*02:01. The assay is described as above. The note with it: source organism: Entamoeba histolytica.
The target of assay [35] is HLA-B*44:02. The description is as above. Particulars: source organism: Entamoeba histolytica.
The target of assay [36] is HLA-A*03:01. The assay is described as above. The note with it: source organism: Entamoeba histolytica.
For assay [37], the target named is HLA-A*24:02. Described as above. Particulars: source organism: Entamoeba histolytica.
Assay [38] has as its target HLA-B*07:02. The assay is described as above. The note with it: source organism: Entamoeba histolytica.
Assay [39] concerns the target HLA-B*18:01. Described as above. Particulars: source organism: Entamoeba histolytica.
For assay [40], the target named is HLA-A*02:19. The description is as above. The note with it: source organism: Entamoeba histolytica HM-1:IMSS.
In assay [41] the target is HLA-B*40:01. Described as above. Particulars: source organism: Entamoeba histolytica.
Assay [42] addresses HLA-B*27:05. The description is as above. The note with it: source organism: Entamoeba histolytica.
In assay [43] the target is HLA-B*58:01. Described as above. Particulars: source organism: Entamoeba histolytica.
The target of assay [44] is HLA-B*15:01. The assay is described as above. Particulars: source organism: Entamoeba histolytica.
Assay [45] addresses HLA-A*02:06. The description is as above. Particulars: source organism: Entamoeba histolytica HM-1:IMSS.
The target of assay [46] is HLA-C*08:02. The assay is described as above. Particulars: source organism: Entamoeba histolytica HM-1:IMSS.
Assay [47] concerns the target HLA-A*02:11. The assay is described as above. The note with it: source organism: Entamoeba histolytica HM-1:IMSS.

As to SLTIPSFYT, the dissociation constant (Kd) in assay [1], in [2], in assay [3], in assay [4], in assay [5] and in assay [6] was at least 20 µM throughout. Also, the Kd in [7], in [8], in assay [9], in assay [10], in [11] and in [12] was at least 20 µM in each case. Besides, the dissociation constant Kd in assay [13], in [14], in assay [15], in assay [16], in assay [17] and in assay [18] was at least 20 µM throughout. Further, the Kd is 0.0097 µM in assay [19], at least 20 µM in assay [20], at least 20 µM in [21] and at least 20 µM in [22].
As to KLMPGSIYV, the Kd in assay [23] was at least 5 µM; in [24], at most 0.0001 µM; in assay [25], 0.109 µM; in [26], at least 5 µM; in assay [27], at least 5 µM; in assay [28], 1.17 µM. Also, the dissociation constant Kd was 0.002 µM in assay [29]; 0.071 µM in [30]; at least 20 µM in [31]; 0.368 µM in assay [32]; at most 0.001 µM in [33]; 0.0062 µM in [34]. The Kd in [35] was at least 20 µM; in [36] it was 0.138 µM; in [37], at least 20 µM; in assay [38], at least 20 µM; in assay [39] it was at least 20 µM; in [40], at most 0.001 µM. Moreover, the Kd is at least 20 µM in [41]; at least 20 µM in assay [42]; at least 20 µM in [43]; 0.127 µM in assay [44]; 0.002 µM in assay [45]; at least 20 µM in assay [46]. Also, in assay [47], the dissociation constant (Kd) was at most 0.001 µM.
